For test [1], the target named is T1, GthCol (Geobacillus thermoglucosidasius C-terminal Colicin DNase domain, C36A, H78A, engineered) (Geobacillus thermoglucosidasius). Put plainly: SPR Biacore T200, 37 C, single cycle kinetics. To be noted: remark: other sources report otherwise.
The target in test [2] is T1, GthCol (Geobacillus thermoglucosidasius …). The experiment in a line: SPR Biacore T200, 37 C, single cycle kinetics; […]. As to conditions: remark: other sources report otherwise. A general note: Surface plasmon resonance follows binding to a sensor surface in real time, without labels.

Results on 1 molecule are retold here after patent US20240140995A1.

B1: E. coli IM-7, singly biotinylated, Q03708 1-87 (protein)
chain: MELKNSISDYTEAEFVQLLKEIEKENVAATDDVLDVLLEHFVKITEHPDGTDLIYYPSDNRDDSPEGIVKEIKEWRAANGKPGFKQG
In general, Kd refers to the free concentration of one partner at which half of the binding sites on the other are occupied at equilibrium, for simple one-to-one binding. By koff is commonly meant the rate constant with which the complex falls apart. In general, kon refers to the second-order rate constant of association. A lower kon goes with slow association. The molecule B1 yielded a complex half-life t/2-diss in test [1] of 2.1 h. In test [2], the Kd was determined as 0.074 nM; the MR (Molar Ratio, binding stoichiometry) was determined as 1.1; the off-rate constant (koff) turned out to be 9.2e-05 s⁻¹; the kon is 1.2e+06 M⁻¹ s⁻¹.
